Patent publication US20140370037A1 (published 2014)

T1: human DLL3 antigen (human, UniProt Q9NYJ7 27-492, limits assumed)
T1 construct: also called immobilized human DLL3; recombinant human DLL3
T1 sequence (looked up): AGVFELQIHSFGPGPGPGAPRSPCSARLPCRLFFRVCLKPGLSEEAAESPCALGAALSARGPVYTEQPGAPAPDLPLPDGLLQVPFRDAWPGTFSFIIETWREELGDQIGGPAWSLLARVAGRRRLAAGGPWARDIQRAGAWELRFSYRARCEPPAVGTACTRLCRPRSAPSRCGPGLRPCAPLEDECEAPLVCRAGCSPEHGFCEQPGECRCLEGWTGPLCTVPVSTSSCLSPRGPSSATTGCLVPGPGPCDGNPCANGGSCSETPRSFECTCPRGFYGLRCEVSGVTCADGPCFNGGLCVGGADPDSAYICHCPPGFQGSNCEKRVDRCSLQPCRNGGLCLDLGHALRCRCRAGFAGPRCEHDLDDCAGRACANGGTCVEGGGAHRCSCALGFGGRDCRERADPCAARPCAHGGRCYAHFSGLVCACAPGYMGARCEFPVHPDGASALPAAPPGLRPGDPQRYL


Target: T1, human DLL3 antigen
Experiment: ELISA or flow cytometry screen

Binder	binding result
SC16.104 (antibody, V domains shown, murine mAb) VH: QVQLKESGPDLVQPSQTLSLTCTVSGFSLTFYGVHWVRQPPGKGLEWVGTMGWDDKKYYNSALKSRLSISRDTSKNQVFLKLSSLQTEDTAMYYCTRGGTGFDYWGQGTTLTVSS VL: QIVLSQSPAILSASPGEKVTMTCRASSSVSYIHWYRQKPGSSPKPWIYATSNLASGVPARFSGSGSGTSYSLTISRVEAEDAATYYCQQWSSNPPTFGAGTKLELK	binds
SC16.111 (antibody, V domains shown, murine mAb) VH: EVQLQQSGPELEKPGASVKISCKASGYSFTGYNMNWVKQSNGKSLEWIGNIDPYYGGSSYKQKFEGKATLTVDKSSSTAYMQLKSLTSEDSAVYYCARGGSNFFDYWGQGTTLTVSS VL: DIQMTQSPASLAASVGETVTITCRASENIYYSLAWYQQKQGKSPQLLIYNANSLEDGVPSRFSGSGSGTQYSMKINSMQPEDTATYFCKQTYDVPLTFGAGTKLELK	binds
SC16.8 (antibody, V domains shown, murine mAb) VH: QAQLQQSGAELVRPGTSVKVSCKASGYAFTNYLIEWVKQRPGQGLEWIGVINPGTGGTNYNENFKGKATLTADKSSSTAYMQLSSLTSDDSAVYFCARSPYDYHEGAMDYWGQGTSVTVSS VL: EIQMTQSPSSMSASLGDRITITCQATQDIVKNLNWYQQKPGKPPSFLIYYAIELAEGVPSRFSGSGSGSDYSLTISNLESEDFADYYCLQFYEFPFTFGAGTKLELK	binds
SC16.109 (antibody, V domains shown, murine mAb) VL: QIVLTQSPAIMSASPGEKVTMTCSASSSVSYMYWYQQKPGSSPRLLIYDTSNLASGVPVRFSGSGSGTSFSLTISRMEAEDTATYYCQEWSGNPLTFGDGTKLELK V domain: QIQLVQSGPELKKPGETVKISCKASGYTFTNYGMNWVKQAPGKGLKWMGWINTYTGEPAYADDFKGRFAFSLETSASAAYLQINNLKNEDTATFFCANMRPTRGFAYWGQGTLGTVSA	binds

The remaining lines, values ahead:

binding result	Binder
binds	SC16.106 (antibody, V domains shown, murine mAb) VH: QVQLKQSGPGLVAPSQSLFITCTVSGFSLTSYEINWVRQPPGKGLEWLGVIWTGGSTNYNSALISRLSISKDNSKSLVFLKMNSLQTDDTAIYYCVRGVYAMDYWGQGTSVTVSS VL: DIKMTQSPSSMYASLGERVTITCKASQDINSYLSWFQQKPGKSPKTLIYRANRLVDGVPSRFSGSGSGQDYSLTISSLEYEDMGIYYCLQYDEFPFTFGSGTKLEIK
binds	SC16.107 (antibody, V domains shown, murine mAb) VH: EVQLQQSGPELVKPGASVKMSCKASGYTFTNYVMHWVKQKPGQGLEWIGYINPYNDGTKYNEKFKGKATLTSDKSSTTAYMALSSLTSEDSAVYYCAVAYYSNWGFAYWGQGTLVTVSA VL: DIVMTQSHKFMSTSVGDRVSITCKASQDVNTAVGWYQQKPGQSPKLLIYSASYRYTGVPDRFTGSGSGTDFTFTISSVQAEDLAVYYCQQHYSSPYTFGGGTKLEIKR
binds	SC16.101 (antibody, V domains shown, murine mAb) VL: QIVLTQSPAIMSASLGERVTMTCTASSSVSSSYLHWYQQKPGSSPKLWIYSTSNLASGVPARFSGSESGTSYSLTISNMEAEDAATYYCHQYHRSPFTFGSGTKLEIK V domain: QVTLKESGPGILQPSQTLSLTCSFSGFSLSTSGMGVGWIRQPSGKGLEWLAHIWWDDVKRYNPALKSRLTISKDASSSQVFLKIASVDTAETATYYCAHILDRAYYFDYWGQGTTLTVTS
binds	SC16.110 (antibody, V domains shown, murine mAb) VH: EVQLQQSGPGLVRTGASVKISCKASGYSFTGYYMHWVKQSHGKSLEWIGYISCYNGATTYNQNFKGKATFIVDTSSSTAYMQFNSLTSEDSAVYYCARSDGGHAMDYWGQGTSVTVSS VL: NIVMTQTPKFLLVSAGDRVTITCKASQSVSNDVAWYQQKPGQSPKLLIYYASNRYTGVPDRFTGSGYGTDFTFTISTVQAEDLAVYFCQQDYSSPPTFGGGTKLEIK
